Laboratory results published in patent US20200199241A1 (Chugai, published 2020).

T1: human FcγRIIa(H) (human, UniProt P12318 36-217)
T1 construct: also called FcgRIIaH; FcγRIIa type H
T1 sequence: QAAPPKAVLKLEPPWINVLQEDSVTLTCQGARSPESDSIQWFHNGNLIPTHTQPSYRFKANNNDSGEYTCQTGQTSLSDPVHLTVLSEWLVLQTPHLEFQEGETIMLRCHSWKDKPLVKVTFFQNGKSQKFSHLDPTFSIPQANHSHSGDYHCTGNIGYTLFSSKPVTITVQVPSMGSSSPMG

T2: human FcγRIIa(R) (human, UniProt P12318 36-217)
T2 construct: also called FcgRIIaR; FcγRIIa type R
T2 chain: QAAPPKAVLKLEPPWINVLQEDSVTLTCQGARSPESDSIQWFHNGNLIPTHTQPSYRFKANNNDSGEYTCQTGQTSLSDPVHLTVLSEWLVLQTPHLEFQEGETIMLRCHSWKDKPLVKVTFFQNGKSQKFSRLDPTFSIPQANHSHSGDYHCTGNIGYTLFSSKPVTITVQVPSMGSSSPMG

T3: human FcγRIIb (human, UniProt P31994 43-217, limits assumed)
T3 construct: also called FcgRIIb
T3 sequence: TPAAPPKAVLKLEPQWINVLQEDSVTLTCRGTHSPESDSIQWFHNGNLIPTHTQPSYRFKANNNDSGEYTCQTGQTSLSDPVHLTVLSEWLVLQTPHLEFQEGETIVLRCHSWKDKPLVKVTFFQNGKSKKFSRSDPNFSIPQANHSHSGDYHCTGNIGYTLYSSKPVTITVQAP


How the values were obtained:
Experiment in all cases: SPR (Biacore);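 note: antibody variants captured on sensor chip, Fcγ receptor flowed over at 25 °C, bound receptor normalized to amount of captured antibody, expressed relative to reference antibody set as 100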
human FcγRIIa(H) = molecular target: T1, human FcγRIIa(H)
Protocol: (§1) Interaction between each modified antibody and Fcγ receptor prepared in the manner described above was analyzed using the BIACORE™ T100 surface plasmon resonance system (GE Healthcare), BIACORE™ T200 surface plasmon resonance system (GE Healthcare), BIACORE™ A100 surface plasmon resonance system or BIACORE™ 4000 surface plasmon resonance system. HBS-EP+ (GE Healthcare) was used for the running buffer, and measurements were carried out at 25° C. The chips used were chips in which antigen peptides, Protein A (Thermo Scientific), Protein A/G (Thermo Scientific) or Protein L (ACTIGEN® protein (Alltech or BioVision) were immobilized on the Series S Sensor Chip CMS (GE Healthcare) or Series S Sensor Chip CM4 (GE Healthcare) by amine coupling, or chips in which preliminarily biotinylated antigen peptides were allowed to interact and then immobilized on the Series S Sensor Chip SA (certified) (GE Healthcare). The target antibodies were captured on these sensor chips, Fcγ receptor diluted with the running buffer was allowed to interact, followed by measurement of the amount of bound antibody. The amounts bound were compared between antibodies. However, since the amount of Fcγ receptor bound depends on the amount of captured antibody, the values used for comparison were first corrected by dividing the amount of Fcγ receptor bound by the captured amount of each antibody. Through reaction with 10 mM glycine-HCl at pH 1.5, the sensor chips were regenerated by washing off antibody captured on the sensor chips and used repeatedly.
(§2) Binding strength was evaluated according to the following method based on the results of analyzing the interaction with each FcγR. […] That value was then further multiplied by 100, and the resulting value was used as an indicator of relative binding activity to each FcγR.

human FcγRIIa(R) = molecular target: T2, human FcγRIIa(R)
Protocol: as §1, §2

human FcγRIIIa(F) = molecular target: T4, human FcγRIIIa(F) (human, UniProt P08637 17-208, limits assumed)
T4 construct: also called FcgRIIIaF; allotype F158
Protocol: as §1, §2

human FcγRIa = molecular target: T5, human FcγRIa (human, UniProt P12314 16-292, limits assumed)
T5 construct: also called FcgRIa; FcγRI (CD64)
Protocol: as §1, §2

human FcγRIIb = molecular target: T3, human FcγRIIb
Protocol: as §1, §2

T4 sequence (P08637 other isoform, or with tags, fused parts or gaps limits assumed): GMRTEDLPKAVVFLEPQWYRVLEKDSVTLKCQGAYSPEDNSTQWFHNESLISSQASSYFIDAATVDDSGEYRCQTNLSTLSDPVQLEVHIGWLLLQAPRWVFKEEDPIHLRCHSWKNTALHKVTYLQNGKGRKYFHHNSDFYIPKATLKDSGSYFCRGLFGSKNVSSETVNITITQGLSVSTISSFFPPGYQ
T5 sequence (P12314 16-292 limits assumed): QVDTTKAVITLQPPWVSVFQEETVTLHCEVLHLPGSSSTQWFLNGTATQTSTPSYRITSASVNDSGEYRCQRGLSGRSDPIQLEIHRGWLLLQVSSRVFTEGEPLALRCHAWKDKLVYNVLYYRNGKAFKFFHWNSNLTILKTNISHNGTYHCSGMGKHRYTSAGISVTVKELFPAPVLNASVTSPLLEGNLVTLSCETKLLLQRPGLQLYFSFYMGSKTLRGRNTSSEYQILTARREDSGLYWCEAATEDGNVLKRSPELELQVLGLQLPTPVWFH

Row | Binder | relative binding activity (human FcγRIIa(H)) | relative binding activity (human FcγRIIa(R)) | relative binding activity (human FcγRIIIa(F)) | relative binding activity (human FcγRIa) | relative binding activity (human FcγRIIb)
1 | GpH7-B3 variant G236H/GpL16-k0 (antibody, human IgG1, copies: 2 + 2) heavy: not shown light: DIVMTQSPLSLPVTPGEPASISCQASESLVHSNRNTYLHWYLQKPGQSPQLLIYKVSNRFSGVPDRFSGSGSGTDFTLKISRVEAEDVGVYYCSQNTHVPPTFGQGTKVEIE | 91 % of GpH7-B3/GpL16-k0 | 32 % of GpH7-B3/GpL16-k0 | 7 % of GpH7-B3/GpL16-k0 | 34 % of GpH7-B3/GpL16-k0 | 6 % of GpH7-B3/GpL16-k0
2 | GpH7-B3 variant G236L/GpL16-k0 (antibody, human IgG1, copies: 2 + 2) heavy: not shown light: DIVMTQSPLSLPVTPGEPASISCQASESLVHSNRNTYLHWYLQKPGQSPQLLIYKVSNRFSGVPDRFSGSGSGTDFTLKISRVEAEDVGVYYCSQNTHVPPTFGQGTKVEIE | 23 % of GpH7-B3/GpL16-k0 | 20 % of GpH7-B3/GpL16-k0 | 1 % of GpH7-B3/GpL16-k0 | 18 % of GpH7-B3/GpL16-k0 | 4 % of GpH7-B3/GpL16-k0
3 | GpH7-B3 variant E2698/GpL16-k0 (antibody, human IgG1, read as E269S (misprint of S as 8); copies: 2 + 2) heavy: not shown light: DIVMTQSPLSLPVTPGEPASISCQASESLVHSNRNTYLHWYLQKPGQSPQLLIYKVSNRFSGVPDRFSGSGSGTDFTLKISRVEAEDVGVYYCSQNTHVPPTFGQGTKVEIE | 48 % of GpH7-B3/GpL16-k0 | 33 % of GpH7-B3/GpL16-k0 | 29 % of GpH7-B3/GpL16-k0 | 93 % of GpH7-B3/GpL16-k0 | 19 % of GpH7-B3/GpL16-k0
4 | GpH7-B3 variant E269T/GpL16-k0 (antibody, human IgG1, copies: 2 + 2) heavy: not shown light: DIVMTQSPLSLPVTPGEPASISCQASESLVHSNRNTYLHWYLQKPGQSPQLLIYKVSNRFSGVPDRFSGSGSGTDFTLKISRVEAEDVGVYYCSQNTHVPPTFGQGTKVEIE | 39 % of GpH7-B3/GpL16-k0 | 35 % of GpH7-B3/GpL16-k0 | 26 % of GpH7-B3/GpL16-k0 | 93 % of GpH7-B3/GpL16-k0 | 19 % of GpH7-B3/GpL16-k0
5 | GpH7-B3 variant G236P/GpL16-k0 (antibody, human IgG1, copies: 2 + 2) heavy: not shown light: DIVMTQSPLSLPVTPGEPASISCQASESLVHSNRNTYLHWYLQKPGQSPQLLIYKVSNRFSGVPDRFSGSGSGTDFTLKISRVEAEDVGVYYCSQNTHVPPTFGQGTKVEIE | 22 % of GpH7-B3/GpL16-k0 | 12 % of GpH7-B3/GpL16-k0 | 1 % of GpH7-B3/GpL16-k0 | 2 % of GpH7-B3/GpL16-k0 | 1 % of GpH7-B3/GpL16-k0
6 | GpH7-B3 variant E269Y/GpL16-k0 (antibody, human IgG1, copies: 2 + 2) heavy: not shown light: DIVMTQSPLSLPVTPGEPASISCQASESLVHSNRNTYLHWYLQKPGQSPQLLIYKVSNRFSGVPDRFSGSGSGTDFTLKISRVEAEDVGVYYCSQNTHVPPTFGQGTKVEIE | 43 % of GpH7-B3/GpL16-k0 | 21 % of GpH7-B3/GpL16-k0 | 14 % of GpH7-B3/GpL16-k0 | 97 % of GpH7-B3/GpL16-k0 | 13 % of GpH7-B3/GpL16-k0

Next, values leading:

Row | relative binding activity (human FcγRIIa(H)) | relative binding activity (human FcγRIIa(R)) | relative binding activity (human FcγRIIIa(F)) | relative binding activity (human FcγRIa) | relative binding activity (human FcγRIIb) | Binder
7 | 3 % of GpH7-B3/GpL16-k0 | 0 % of GpH7-B3/GpL16-k0 | -1 % of GpH7-B3/GpL16-k0 | 6 % of GpH7-B3/GpL16-k0 | 0 % of GpH7-B3/GpL16-k0 | GpH7-B3 variant G236R/GpL16-k0 (antibody, human IgG1, copies: 2 + 2) heavy: not shown light: DIVMTQSPLSLPVTPGEPASISCQASESLVHSNRNTYLHWYLQKPGQSPQLLIYKVSNRFSGVPDRFSGSGSGTDFTLKISRVEAEDVGVYYCSQNTHVPPTFGQGTKVEIE
8 | 6 % of GpH7-B3/GpL16-k0 | 69 % of GpH7-B3/GpL16-k0 | 2 % of GpH7-B3/GpL16-k0 | 6 % of GpH7-B3/GpL16-k0 | 29 % of GpH7-B3/GpL16-k0 | GpH7-B3 variant G237I/GpL16-k0 (antibody, human IgG1, copies: 2 + 2) heavy: not shown light: DIVMTQSPLSLPVTPGEPASISCQASESLVHSNRNTYLHWYLQKPGQSPQLLIYKVSNRFSGVPDRFSGSGSGTDFTLKISRVEAEDVGVYYCSQNTHVPPTFGQGTKVEIE
9 | 86 % of GpH7-B3/GpL16-k0 | 22 % of GpH7-B3/GpL16-k0 | 39 % of GpH7-B3/GpL16-k0 | 76 % of GpH7-B3/GpL16-k0 | 16 % of GpH7-B3/GpL16-k0 | GpH7-B3 variant G236Y/GpL16-k0 (antibody, human IgG1, copies: 2 + 2) heavy: not shown light: DIVMTQSPLSLPVTPGEPASISCQASESLVHSNRNTYLHWYLQKPGQSPQLLIYKVSNRFSGVPDRFSGSGSGTDFTLKISRVEAEDVGVYYCSQNTHVPPTFGQGTKVEIE
10 | 80 % of GpH7-B3/GpL16-k0 | 38 % of GpH7-B3/GpL16-k0 | 8 % of GpH7-B3/GpL16-k0 | 45 % of GpH7-B3/GpL16-k0 | 19 % of GpH7-B3/GpL16-k0 | GpH7-B3 variant G236Q/GpL16-k0 (antibody, human IgG1, copies: 2 + 2) heavy: not shown light: DIVMTQSPLSLPVTPGEPASISCQASESLVHSNRNTYLHWYLQKPGQSPQLLIYKVSNRFSGVPDRFSGSGSGTDFTLKISRVEAEDVGVYYCSQNTHVPPTFGQGTKVEIE
11 | 1 % of GpH7-B3/GpL16-k0 | 56 % of GpH7-B3/GpL16-k0 | 0 % of GpH7-B3/GpL16-k0 | 14 % of GpH7-B3/GpL16-k0 | 36 % of GpH7-B3/GpL16-k0 | GpH7-B3 variant G237M/GpL16-k0 (antibody, human IgG1, copies: 2 + 2) heavy: not shown light: DIVMTQSPLSLPVTPGEPASISCQASESLVHSNRNTYLHWYLQKPGQSPQLLIYKVSNRFSGVPDRFSGSGSGTDFTLKISRVEAEDVGVYYCSQNTHVPPTFGQGTKVEIE
